Laboratory results as given in the supplement of paper PMC6757056.
± gives the standard deviation of the averaged measurements.

B1: library; a variant is named by its letters at N, in order (parent)
chain: GCUGUCACCGGUGCUUGGUACGUUAUAUUCAGCCGGUCUGAUGAGUCUNNNNNNAGACGAAACAGC

Tests used:
(6R,S)-folinic acid [1] = variants of: B1; test: FACS-Seq fitted mean relative fluorescence mCherry/BFP without ligand (log10 relative fluorescence); HEK293T overexpressing SLC46A1; higher = higher reporter protein expression; conditions: without (6R,S)-folinic acid; ligand present: no
How it was run: (§1)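 Reporter cells were enriched HEK293T libraries transduced by lentivirus with mCherry behind the ribozyme switch and with an EF1α-BFP marker. Following 48 h with or without ligand, they were sorted into 6 mCherry/BFP bins, and bin genomic DNA was PCR-amplified, barcoded and MiSeq-sequenced. Fluorescence was computed as the fitted normal mean of the bin counts. The fit used log10(mCherry/BFP), with scaling to five spiked-in control ribozymes.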

(6R,S)-folinic acid [2] = variants of: B1; test: normalized RNA/DNA level without ligand (relative to sTRSVctl = 100) (log10 (% of sTRSVctl)); HEK293T overexpressing SLC46A1; higher = less ribozyme self-cleavage, higher mRNA level; conditions: without (6R,S)-folinic acid; ligand present: no
How it was run: (§2)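 RNA level was computed as RNA reads over DNA reads divided by a spiked-in non-cleaving sequence or by the top sequences, then scaled and log-transformed. Scaling was ×100 with log10, the top group was 25 sequences, and the threshold was ≥100 DNA reads. The reads came from HEK293T cells transfected at 4 µg per 6-well well with ribozyme switch library plasmids (mCherry, or eGFP in some ligand experiments). Total RNA was extracted with EDTA 72 h after transfection, with any ligand added 1 h before it.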

(6R,S)-folinic acid [3] = variants of: B1; test: FACS-Seq fitted mean relative fluorescence mCherry/BFP with ligand (log10 relative fluorescence); HEK293T overexpressing SLC46A1; ligand concentration (+) FACS-Seq: 6 mM; higher = higher reporter protein expression; conditions: with (6R,S)-folinic acid; ligand present: yes
How it was run: as §1

(6R,S)-folinic acid [4] = variants of: B1; test: normalized RNA/DNA level with ligand (relative to sTRSVctl = 100) (log10 (% of sTRSVctl)); HEK293T overexpressing SLC46A1; ligand concentration (+) RNA-Seq: 6 mM; higher = less ribozyme self-cleavage, higher mRNA level; conditions: with (6R,S)-folinic acid; ligand present: yes
How it was run: as §2

GCUGUCACCGGUGCUUGGUACGUUAUAUUCAGCCGGUCUGAUGAGUCUGGUAGUAGACGAAACAGC
FACS-Seq fitted mean (log10) ((6R,S)-folinic acid [1]): 0.312 ± 0.15
normalized RNA/DNA level without ligand (log10) ((6R,S)-folinic acid [2]): 1.988 ± 0.0021
FACS-Seq fitted mean (log10) ((6R,S)-folinic acid [3]): 0.316 ± 0.16
normalized RNA/DNA level with ligand (log10) ((6R,S)-folinic acid [4]): 2.01 ± 0.055

GCUGUCACCGGUGCUUGGUACGUUAUAUUCAGCCGGUCUGAUGAGUCUGGUAAAAGACGAAACAGC
FACS-Seq fitted mean (log10) ((6R,S)-folinic acid [1]): 0.462 ± 0.11
normalized RNA/DNA level without ligand (log10) ((6R,S)-folinic acid [2]): 1.979 ± 0.014
FACS-Seq fitted mean (log10) ((6R,S)-folinic acid [3]): 0.474 ± 0.38
normalized RNA/DNA level with ligand (log10) ((6R,S)-folinic acid [4]): 2 ± 0.03

GCUGUCACCGGUGCUUGGUACGUUAUAUUCAGCCGGUCUGAUGAGUCUGGUAAGAGACGAAACAGC
FACS-Seq fitted mean (log10) ((6R,S)-folinic acid [1]): 0.539 ± 0.082
normalized RNA/DNA level without ligand (log10) ((6R,S)-folinic acid [2]): 1.919 ± 0.0032
FACS-Seq fitted mean (log10) ((6R,S)-folinic acid [3]): 0.424 ± 0.051
normalized RNA/DNA level with ligand (log10) ((6R,S)-folinic acid [4]): 2 ± 0.036

GCUGUCACCGGUGCUUGGUACGUUAUAUUCAGCCGGUCUGAUGAGUCUGGUAAUAGACGAAACAGC
FACS-Seq fitted mean (log10) ((6R,S)-folinic acid [1]): 0.342 ± 0.044
normalized RNA/DNA level without ligand (log10) ((6R,S)-folinic acid [2]): 1.992 ± 0.015
FACS-Seq fitted mean (log10) ((6R,S)-folinic acid [3]): 0.504 ± 0.12
normalized RNA/DNA level with ligand (log10) ((6R,S)-folinic acid [4]): 2.03 ± 0.043

GCUGUCACCGGUGCUUGGUACGUUAUAUUCAGCCGGUCUGAUGAGUCUUGUAAUAGACGAAACAGC
FACS-Seq fitted mean (log10) ((6R,S)-folinic acid [1]): 0.41 ± 0.068
normalized RNA/DNA level without ligand (log10) ((6R,S)-folinic acid [2]): 1.886 ± 0.0076
FACS-Seq fitted mean (log10) ((6R,S)-folinic acid [3]): 0.35 ± 0.072
normalized RNA/DNA level with ligand (log10) ((6R,S)-folinic acid [4]): 1.994 ± 0.0024

GCUGUCACCGGUGCUUGGUACGUUAUAUUCAGCCGGUCUGAUGAGUCUUGUAAGAGACGAAACAGC
FACS-Seq fitted mean (log10) ((6R,S)-folinic acid [1]): 0.295 ± 0.0061
normalized RNA/DNA level without ligand (log10) ((6R,S)-folinic acid [2]): 1.666 ± 0.0027
FACS-Seq fitted mean (log10) ((6R,S)-folinic acid [3]): 0.624 ± 0.062
normalized RNA/DNA level with ligand (log10) ((6R,S)-folinic acid [4]): 1.94 ± 0.033

GCUGUCACCGGUGCUUGGUACGUUAUAUUCAGCCGGUCUGAUGAGUCUUGUAAAAGACGAAACAGC
FACS-Seq fitted mean (log10) ((6R,S)-folinic acid [1]): 0.596 ± 0.02
normalized RNA/DNA level without ligand (log10) ((6R,S)-folinic acid [2]): 1.924 ± 0.0087
FACS-Seq fitted mean (log10) ((6R,S)-folinic acid [3]): 0.761 ± 0.19
normalized RNA/DNA level with ligand (log10) ((6R,S)-folinic acid [4]): 1.993 ± 0.0085

GCUGUCACCGGUGCUUGGUACGUUAUAUUCAGCCGGUCUGAUGAGUCUGGUACAAGACGAAACAGC
FACS-Seq fitted mean (log10) ((6R,S)-folinic acid [1]): -0.547 ± 0.083
normalized RNA/DNA level without ligand (log10) ((6R,S)-folinic acid [2]): 2.066 ± 0.0024
FACS-Seq fitted mean (log10) ((6R,S)-folinic acid [3]): -0.647 ± 0.18
normalized RNA/DNA level with ligand (log10) ((6R,S)-folinic acid [4]): 2.07 ± 0.036

GCUGUCACCGGUGCUUGGUACGUUAUAUUCAGCCGGUCUGAUGAGUCUGGGUUGAGACGAAACAGC
FACS-Seq fitted mean (log10) ((6R,S)-folinic acid [1]): 0.344 ± 0.19
normalized RNA/DNA level without ligand (log10) ((6R,S)-folinic acid [2]): 2.037 ± 0.0021
FACS-Seq fitted mean (log10) ((6R,S)-folinic acid [3]): 0.56 ± 0.17
normalized RNA/DNA level with ligand (log10) ((6R,S)-folinic acid [4]): 2.05 ± 0.049

GCUGUCACCGGUGCUUGGUACGUUAUAUUCAGCCGGUCUGAUGAGUCUAGGUGUAGACGAAACAGC
FACS-Seq fitted mean (log10) ((6R,S)-folinic acid [1]): 0.0941 ± 0.074
normalized RNA/DNA level without ligand (log10) ((6R,S)-folinic acid [2]): 1.954 ± 0.015
FACS-Seq fitted mean (log10) ((6R,S)-folinic acid [3]): 0.266 ± 0.017
normalized RNA/DNA level with ligand (log10) ((6R,S)-folinic acid [4]): 2.0099 ± 0.00041

GCUGUCACCGGUGCUUGGUACGUUAUAUUCAGCCGGUCUGAUGAGUCUCGUAAAAGACGAAACAGC
FACS-Seq fitted mean (log10) ((6R,S)-folinic acid [1]): 0.203 ± 0.0032
normalized RNA/DNA level without ligand (log10) ((6R,S)-folinic acid [2]): 1.956 ± 0.0076
FACS-Seq fitted mean (log10) ((6R,S)-folinic acid [3]): 0.334 ± 0.32
normalized RNA/DNA level with ligand (log10) ((6R,S)-folinic acid [4]): 1.977 ± 0.017

GCUGUCACCGGUGCUUGGUACGUUAUAUUCAGCCGGUCUGAUGAGUCUCGUAAUAGACGAAACAGC
FACS-Seq fitted mean (log10) ((6R,S)-folinic acid [1]): 0.544 ± 0.015
normalized RNA/DNA level without ligand (log10) ((6R,S)-folinic acid [2]): 1.93 ± 0.029
FACS-Seq fitted mean (log10) ((6R,S)-folinic acid [3]): 0.552 ± 0.14
normalized RNA/DNA level with ligand (log10) ((6R,S)-folinic acid [4]): 1.96 ± 0.022

GCUGUCACCGGUGCUUGGUACGUUAUAUUCAGCCGGUCUGAUGAGUCUAGUACGAGACGAAACAGC
FACS-Seq fitted mean (log10) ((6R,S)-folinic acid [1]): 0.0935 ± 0.062
normalized RNA/DNA level without ligand (log10) ((6R,S)-folinic acid [2]): 1.935 ± 0.0077
FACS-Seq fitted mean (log10) ((6R,S)-folinic acid [3]): -0.00576 ± 0.14
normalized RNA/DNA level with ligand (log10) ((6R,S)-folinic acid [4]): 2.03 ± 0.045

GCUGUCACCGGUGCUUGGUACGUUAUAUUCAGCCGGUCUGAUGAGUCUUGGUUGAGACGAAACAGC
FACS-Seq fitted mean (log10) ((6R,S)-folinic acid [1]): 0.266 ± 0.011
normalized RNA/DNA level without ligand (log10) ((6R,S)-folinic acid [2]): 1.829 ± 0.014
FACS-Seq fitted mean (log10) ((6R,S)-folinic acid [3]): 0.626 ± 0.09
normalized RNA/DNA level with ligand (log10) ((6R,S)-folinic acid [4]): 1.98 ± 0.015

GCUGUCACCGGUGCUUGGUACGUUAUAUUCAGCCGGUCUGAUGAGUCUUGUAGCAGACGAAACAGC
FACS-Seq fitted mean (log10) ((6R,S)-folinic acid [1]): 0.389 ± 0.16
normalized RNA/DNA level without ligand (log10) ((6R,S)-folinic acid [2]): 1.907 ± 0.01
FACS-Seq fitted mean (log10) ((6R,S)-folinic acid [3]): 0.362 ± 0.049
normalized RNA/DNA level with ligand (log10) ((6R,S)-folinic acid [4]): 1.988 ± 0.016

GCUGUCACCGGUGCUUGGUACGUUAUAUUCAGCCGGUCUGAUGAGUCUUGUAGGAGACGAAACAGC
FACS-Seq fitted mean (log10) ((6R,S)-folinic acid [1]): 0.342 ± 0.083
normalized RNA/DNA level without ligand (log10) ((6R,S)-folinic acid [2]): 1.61 ± 0.018
FACS-Seq fitted mean (log10) ((6R,S)-folinic acid [3]): 0.855 ± 0.1
normalized RNA/DNA level with ligand (log10) ((6R,S)-folinic acid [4]): 1.92 ± 0.033

GCUGUCACCGGUGCUUGGUACGUUAUAUUCAGCCGGUCUGAUGAGUCUAGGUUAAGACGAAACAGC
FACS-Seq fitted mean (log10) ((6R,S)-folinic acid [1]): 0.33 ± 0.013
normalized RNA/DNA level without ligand (log10) ((6R,S)-folinic acid [2]): 1.981 ± 0.0028
FACS-Seq fitted mean (log10) ((6R,S)-folinic acid [3]): 0.384 ± 0.056
normalized RNA/DNA level with ligand (log10) ((6R,S)-folinic acid [4]): 1.98 ± 0.04

GCUGUCACCGGUGCUUGGUACGUUAUAUUCAGCCGGUCUGAUGAGUCUAGGUUUAGACGAAACAGC
FACS-Seq fitted mean (log10) ((6R,S)-folinic acid [1]): 0.323 ± 0.15
normalized RNA/DNA level without ligand (log10) ((6R,S)-folinic acid [2]): 2.003 ± 0.012
FACS-Seq fitted mean (log10) ((6R,S)-folinic acid [3]): 0.561 ± 0.075
normalized RNA/DNA level with ligand (log10) ((6R,S)-folinic acid [4]): 2.0283 ± 0.00022

GCUGUCACCGGUGCUUGGUACGUUAUAUUCAGCCGGUCUGAUGAGUCUAGUAAAAGACGAAACAGC
FACS-Seq fitted mean (log10) ((6R,S)-folinic acid [1]): 0.22 ± 0.14
normalized RNA/DNA level without ligand (log10) ((6R,S)-folinic acid [2]): 1.954 ± 0.013
FACS-Seq fitted mean (log10) ((6R,S)-folinic acid [3]): 0.344 ± 0.14
normalized RNA/DNA level with ligand (log10) ((6R,S)-folinic acid [4]): 1.98 ± 0.041

GCUGUCACCGGUGCUUGGUACGUUAUAUUCAGCCGGUCUGAUGAGUCUUGUACUAGACGAAACAGC
FACS-Seq fitted mean (log10) ((6R,S)-folinic acid [1]): 0.366 ± 0.027
normalized RNA/DNA level without ligand (log10) ((6R,S)-folinic acid [2]): 1.99 ± 0.026
FACS-Seq fitted mean (log10) ((6R,S)-folinic acid [3]): 0.253 ± 0.17
normalized RNA/DNA level with ligand (log10) ((6R,S)-folinic acid [4]): 2.021 ± 0.0023

GCUGUCACCGGUGCUUGGUACGUUAUAUUCAGCCGGUCUGAUGAGUCUCGGUUAAGACGAAACAGC
FACS-Seq fitted mean (log10) ((6R,S)-folinic acid [1]): 0.594 ± 0.087
normalized RNA/DNA level without ligand (log10) ((6R,S)-folinic acid [2]): 1.9899 ± 0.00027
FACS-Seq fitted mean (log10) ((6R,S)-folinic acid [3]): 0.531 ± 0.12
normalized RNA/DNA level with ligand (log10) ((6R,S)-folinic acid [4]): 2.02 ± 0.056
